Experimental data published in publication PMC7160673, “A Degenerate Peptide Library Approach to Reveal Sequence Determinants of Methyllysine-Driven Protein Interactions” (Frontiers in Cell and Developmental Biology, 2020).
Read-outs that look alike come from different tables or passages of the source.

Tests used:
[1] = target: biotinylated H3(1-20)K9me2 peptide; assay: Kme-OPL pulldown fluorescence assay (GST-tagged reader domain); details: parent: est. 1300; read off a plot
[2] = target: FAM-KAK(Kme3)TGK peptide (human); assay: fluorescence polarisation; protein serially diluted with 10 nM FAM peptide; 25 mM HEPES pH 7.5, 100 mM NaCl, 0.05% NP-40; anisotropy fitted by specific binding with Hill slope
[3] = target: FAM-TAR(Kme3)STG peptide (H3K9me3); assay: as above
[4] = target: FAM-KAK(Kme3)TGK peptide (human); assay: as above; remark: listed apart in the source
FAM-WAY(Kme3)TGK peptide = assay: as above

M Phase Phosphoprotein 8 chromodomain, sequence (Q99549 55-116): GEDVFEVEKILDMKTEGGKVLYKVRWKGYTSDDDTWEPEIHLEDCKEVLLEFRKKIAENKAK

For “M Phase Phosphoprotein 8 chromodomain (from UniProt Q99549) W80A”, the response (RFU (GST-subtracted fluorescence)) [1] was 150.
“M Phase Phosphoprotein 8 chromodomain (from UniProt Q99549 55-116) (domain or fragment)” was tested, and the Kd [2] was 840 nM, the fold tighter than the H3K9me3 peptide [2] was 10 fold and the Kd [3] was 5400 nM. For the same substance, the Kd [4] was 660 nM.
Substance “Chromodomain Y-like protein 2 chromodomain (domain or fragment)” has a Kd [2] of 3600 nM and a fold tighter than the H3K9me3 peptide (FAM-WAY(Kme3)TGK peptide) of 100 fold.
